Key:
[1] = biological target: DdMyo7 short heavy meromyosin forced-dimer GFP (shHMM-FD-GFP) (Dictyostelium | not stated)
[2] = biological target: DdMyo7 long heavy meromyosin (lnHMM), FLAG-tagged (Dictyostelium); assay: co-IP; lnHMM (FLAG) precipitated with anti-Flag beads from a MgATP-released, myosin-enriched cytoskeletal fraction of talA null cells; washed in Flag buffer (25 mM Hepes pH 7.4, 300 mM NaCl, 10 mM MgCl2 and 5 mM EGTA, or 2 mM CaCl2); eluted with Flag peptide; gel stained with Coomassie or Sypro Ruby, densitometry normalised to molecular weights; lower band identified by mass spectrometry
Sequence of DdMyo7 long heavy meromyosin (lnHMM), FLAG-tagged (Dictyostelium) (Q9U1M8 686-725): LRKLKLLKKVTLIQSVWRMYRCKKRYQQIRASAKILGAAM

[3] = biological target: DdMyo7 short heavy meromyosin forced-dimer GFP (shHMM-FD-GFP) (Dictyostelium | not stated); assay: co-IP; as a2, but the resin washed in IP wash buffer + 2 mM CaCl2 (+Ca2+); immunoblot signal normalised for gel load and heavy chain abundance

Row | velocity of shHMM-FD on F-actin (TIRF motility assay) with 100 μM free Ca2+, against 40.7 nm/s without Ca2+ [1] [nm/s] | stoichiometry N [2] [CalB per HC] | reduction of immunoblot signal with Ca2+ [3] [%] | Substance
1 | 23.6 | 2.01 |  | Dictyostelium CaM-like protein CalB (natural protein)
2 |  |  | 75.1 | FLAG-CalB (natural protein)

— article PMC12125552
